Laboratory results published in the nanobody polyreactivity screen of Harvey et al. (2022).

Assay: yeast display, Sf9 membrane polyspecificity reagent, FACS + sequencing; frameworks hold sequencing errors
In short: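 In a synthetic yeast display library (Saccharomyces cerevisiae BJ5465), nanobody expression was induced with galactose for 36–48 hours. FACS gates were set low and high (top ~1%) using anti-HA fluorescence for expression and streptavidin fluorescence for binding of the Sf9 membrane reagent. Each polyreactivity label is drawn from the gate of origin.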

Sequence: QVQLVESGGGLVQAGGSLRLSCAASGRIFFYYAMGWYRQAPGKERELVATITASGDSTYYADSVKGRFTISRDNAKNTVYLQMNSLKPEDTAVYYCAADDGDYYEVDYWGQGTQVTVSS
- polyreactivity (PSR sort gate): low polyreactivity

Sequence: QVQLVESGGGLVQAGGSLRLSCAACGSIVRDYAMGWYRQAPGKERELVAAIRQSGGRTYYADSVKGRFTISRDNAKNTVYLQMNSLKPDDTAVYYCIARRANYWKKASTQYYYWGQGTQVTVSS
- polyreactivity (PSR sort gate): high polyreactivity

Sequence: QVQLVESGGGLVQAGGSLRLSCAASGFTFYRYAMGWYRPAPGKERELVAAITRSGSRTYYADSVKGRFTISRDNAKNTVYLQMNSLKPEDTAVYYCNTDGGDHPTARYGYWGQGTQVTVSS
- polyreactivity (PSR sort gate): high polyreactivity

Sequence: QVQLVESGGGLVQAGGSLRLSCAASGLTFWDYAMGWYRQAPGKERELVAGINTRGTSTYYADSVKGRFTISRDNAKNTVYLQMNSLKPEDTAVYYCAAEFFGYWYGIQYDYWGQGTQVTVSS
- polyreactivity (PSR sort gate): high polyreactivity

Sequence: QVQLVESGGGLVQAGGSLRLSCAASGFTFGHYAMGWYRQAPGKERELVAAISIDGGRTYYADSVKGRFTISRDNAKNTVYLQMNSLKPEDTAVYYCAVPRWVYYTSDYDYWGQGTQVTVSS
- polyreactivity (PSR sort gate): high polyreactivity

Sequence: QVQLVESGGGLVQAGGSLRLSCAASGFTFVYYVMGWYRQAPGKERELVAAINAGGGSTYYADSVKGRFTISRDNAKNTVYLQMNSLKPEDTAVYYCNARVRVRLGRNWSSYYYWGQGTQVTVSS
- polyreactivity (PSR sort gate): high polyreactivity

Sequence: QVQLVESGGGLVQAGGSLRLSCAASGSTSYRYAMGWYRQAPGKERELVAAISSSGGSTYYADSVKGRFTISRDNAKNTVYLQMNSLKPEDTAVYYCAARFYSGPGGYTMYYWGQGTQVTVSS
- polyreactivity (PSR sort gate): high polyreactivity

Sequence: QVQLVESGGGLVQAGGSLRLSCAASGLIFGYNAMGWYRQAPGKEREFVAGISVIDGRTYYADSVKGRFTISRDNAKNTVYLQMNSLIPEDTAVYYCAADRWYKYYFLTYGYWGQGTQVTVSS
- polyreactivity (PSR sort gate): low polyreactivity

Sequence: QVQLVESGGGLVQAGGSLRLSCAASGRISTYYTMGWYRQAPGKERELVAAISWSGTSTYYADSVKGRFTISRDNAKNTVYLQMNSLKPEDTAVYYCNARWRYPLDSVTDDYWGQGTQVTVSS
- polyreactivity (PSR sort gate): high polyreactivity

Sequence: QVPLVESAGGLVQAGGSLRLSCAASGITLYVYAKGWYRQAPGKERELVAAINSGGNTYYADSVKGRFTISRDNAKNTVYLQMNSLKPADTAVYYCAAVYPRQVSHVWRDDYWGQGTQVTVSS
- polyreactivity (PSR sort gate): high polyreactivity

Sequence: QVQLVESGGGLVQAGGSLRLSCAASGFIFLVNAMGWYRHAPGKERELVAAITTSGASTYYADSVKGRFTISRDNAKNTVYLQMNSLKPEDTAVYYCAAGSYARPEYGYWGQGTQVTVSS
- polyreactivity (PSR sort gate): low polyreactivity

Sequence: QVQLVESGGGLVQAGGSLRLSCAASGSIFRSSDMGWYRQAPGKERELVAAISDSTGTTYYADSVKGRFTISRDNAKNTVYLQMNSLKPEDTAVYYCAADYFWYRSGRYHYWGQGTQVTVSS
- polyreactivity (PSR sort gate): high polyreactivity

Sequence: QVQLVESGGCLVQAGGSLRLSGAASGYTFFFNVMGWYRPAPGKERQMVAAISYSGGSTNYADSVKGRFTISRDNAKITVYLQINSLKPEDTAVYYCNARSVSRNGYQDDYWGQGTQVTVSS
- polyreactivity (PSR sort gate): low polyreactivity

Sequence: QVQLVESGGGLVQAGGSLRLSCAASGSIFPKNAMGWYRQAPGKERELVAGITSRTGRTYYADSVKGRFTISRDKAKNTVYLQMNSLKPEDTAVYYCAARIGGGPVKYDYWGQGTQVTVSS
- polyreactivity (PSR sort gate): high polyreactivity

Sequence: QVQLVESGGGLVQAGGSLRLSCAASGSIFPPYAMGWYRQAPGKERELVATITIRGGSTYYADSVKGRFTISRDNAKNTVYLQMNSLKREDTAVYYCAADYTKYYRRYYYWGQGTQVTVSS
- polyreactivity (PSR sort gate): high polyreactivity

Sequence: QVQLVESGGGLVQAGGSLRLSCAASGSIFPEYAMGWYIQAPGKERELVASISSGGSSTYYADSVKGRFTISRDNAKNTVYLQMNSLKPEDTAVYYCARRRSYKRRFDYWGQGTQVTVSS
- polyreactivity (PSR sort gate): low polyreactivity

Sequence: QVQLVESGGGLVQAGGSLRLSCAASGRILRYYAMGGYRQAPGKERELVAAITSGGSTTYYADSVKGRFTISRDNAKNTVYLQMNSLKPEDTAVYYCAADRARSSAKYDYWGQGTQVTVSS
- polyreactivity (PSR sort gate): low polyreactivity

Sequence: QVQLVESGGGLVQAGGSLRLSCAASGFIFHPYAMGWYRQAPGKERELVAAISWSGDGTYYADSVKGRFTISRDNAKNTVYLQMNSLKPEDTAVYYCNAGFYRSYYKSPMGYWGQGTQVTVSS
- polyreactivity (PSR sort gate): low polyreactivity

Sequence: QVQLVESGGGIVQAGGSLRLSCAASGFIFSSYAMGWYRQAPGKERELVAAITVRAGRTYYADSVKGRFTISRDNAKKTVYLQMNSLKPEDTAVYYCNAVSTAVIGYEYDYWGQGTQVTVSS
- polyreactivity (PSR sort gate): high polyreactivity

Sequence: QVQLVESGGGLVQAGGSLRLSCAASGSIFYANDMGWYRQAPGKERELVADITSDSTYYADSVKGRFTISRDNAKNTVYLQMNSLKPEDTAVYYCAADVYGVHAPQSDYWTKYDYWGQGTQVTVSS
- polyreactivity (PSR sort gate): low polyreactivity

Sequence: QVQLVESGGGLVQAGGSLRLSCAASGSIFAYYAMGWYRQAPGKERELVAAITSGDSTYYADSVKGRFTISRDNAKNTVYLQMNSLKPEDSAVYYCAADVSWRSNWYDYWGQGTQVTVSS
- polyreactivity (PSR sort gate): low polyreactivity

Sequence: QVQLVESGGGLVQAGGSLRLSCAASGSPVSRYALGWYRQAPGKERELVAAFSWGGNTYYADSVKGRFTISRDNAKNTVYLQMKSLKPEDTAVYYCNRYSKLYNTMDYWGQGTQVTVSS
- polyreactivity (PSR sort gate): high polyreactivity

Sequence: QDQHVESGGCLVQEGGSLRLSCAASGRTFSSNVMGWYRQAPGKVRELVASITWSGGTTYYADSVKGRFTISRDNAKNTVYLQMNSLKPEDTAVYYCNAADERSQGWVGYDHWGQCTQVTVSS
- polyreactivity (PSR sort gate): low polyreactivity

Sequence: QVQLVESGGGLVQAGGSLRLSCAASGSIFRPYTMGWYRQAPGKERELVATISSTGITNYADSVKGRFTISRDNAKNTVYLQMNSLKPEDTAVYYCAARGRYVTPQPSYDYWGQGTQVTVSS
- polyreactivity (PSR sort gate): high polyreactivity

Sequence: QVQLGESGGGLVEAGGSLRLSCAASGSTFNRYAMGWYRQAPGKERELVAAISFSGGRTYYADSVKGRFTISRDNAKNTVYLQMNSLKPEDTAVYYCAKVVYGYFTRAYTYNYWGHGTQVTVSS
- polyreactivity (PSR sort gate): high polyreactivity

Sequence: QVQLVESGGGLVQAGGSLRLSCAASGITFSRNAMGWSRQARGKERELVAAISRGGSTNYADSVKGRFTISRDNAKNTVYLQMNSLKPEDTAVYYCNAPGYLSWRFYGVKRNYWGQGTQVTVSS
- polyreactivity (PSR sort gate): high polyreactivity

Sequence: QVQLVESGGGLVQAGGSLRLSCAASGSIFEYYAMGWYRQAPGKERELVATITTRGGSTYYADSVKGRFTLSRDNAKNTVSLQMKCLKPEDTAVYYCNARAAYYGRGTLLRRNYWGQGTQVTVSS
- polyreactivity (PSR sort gate): high polyreactivity

Sequence: QDQLVESGGGLVQAGGSLRLSCAASGITFPKYAMGWYRQAPGKERELVAAITKSGGSTYYADSVKGRFTISRDNAKNTVYLQMNSLKPEVTAVYYCAARPRYGEYDYWGQGTQVTVSS
- polyreactivity (PSR sort gate): high polyreactivity

Sequence: QVQLVESGGGLVQAGGSLRLSCAASGFIFYQYAMGWYRQAPGKERELVAAISWGGGSTYYADSVKGRFTISRDNAKNTVYLQMNSLKPEDTAVYYCAATGLGWHSYHEYDYWGQGTQVTVSS
- polyreactivity (PSR sort gate): low polyreactivity

Sequence: QVQLVESGGGLVQAGGSLRLSCAASGLIFVRYAMGWYRQAPGKERELVATITWSGGTTYADSVKGRFTISRDNGKNTVYLQMNSLKPEDTEVYDCAVEWPAWTDSDYPVGGHAFGYWGQVTQVTVSS
- polyreactivity (PSR sort gate): low polyreactivity

Sequence: QVQLVESGGGLVQAGGSLRLSCAASGSTFPFYAMGWYRQAPGKERELVAAITASVGNTYYADSVKGRFTISRDNAKNTVYLQMNSLKPEDTAVYYCNADEWYTYIPDFDYWGQGTQVTVSS
- polyreactivity (PSR sort gate): low polyreactivity
